Results on 13 sequences are retold here after a protein production outcome set (Wang et al. 2014).

The nature of the data set: label from the status in PepcDB records.

Take “MKRKMLKRLLTSAFACMFIANGLITTTVRAVGPKTGEENQVLVPNLNPTPENLEVVGDGFKITSSINLVGEEEADENAVNALREFLTANNIEINSENDPNSTTLIIGEVDDDIPELDEALNGTTAENLKEEGYALVSNDGKIAIEGKDGDGTFYGVQTFKQLVKESNIPEVNITDYPTVSARGIVEGFYGTPWTHKDRLDQIKFYGENKLNTYIYAPKDDPYHREKWREPYPENEMQRMQELIDASAENKVDFVFGISPGIDIRFDGEAGEEDFNHLIAKAESLYDMGVRSFAIYWDDIQDKSAAKHAQVLNRFNEEFVKAKGDVKPLITVPTEYDTGAMVSNGQPRTYTRIFAETVDPSIEVMWTGPGVVTNEIPLSDAQLISGIYNRNMAVWWNYPVTDYFKGKLALGPMHGLDKGLNQYVDFFTVNPMEHAELSKISIHTAADYSWNMDNYDYDKAWNRAIDMLYGDLAEDMKVFANHSTRMDNKTWAKSGREDAPELRAKMDELWNKLSSKEDASALIEELYGEFARMEEACNNLKANLPEVALEECSRQLDELITLAQGDKASLDMIVAQLNEDTEAYESAKEIAQNKLNTALSSFAVISEKVAQSFIQEALSFDLTLINPRTVKITASSEETSGENAPASFASDGDMNTFWHSKWSSPAHEGPHHLTLELDNVYEINKVKYAPRQDSKNGRITGYKVSVSLDGENFTEVKTGTLEDNAAIKFIEFDSVDAKYVRLDVTDSVSDQANGRGKFATAAEVNVHGKLKEAAEVTGSVSLEALEEVQVGENIEVGVGIDELVNAEAFAYDFTLNYDENAFEYVEAISDDGVFVNAKKIEDGKVRVLVSSLTGEPLPAKEVLAKVVLRAEAKTEGSNLSVTNSSVGDGEGLVHEIAGTEKTVNIIEGTSPEIVVNPVRDFKASEINKKNVTVTWTEPETTEGLEGYILYKDGKKVAEIGKDETSYTFKKLNRHTIYNFKIAAKYSNGEVSSKESLTLRTAR”: the protein production entry is on record as “failed”.
The same measure for “MKRLIAATLVAAMGVSLLTGCGVSNKSHDNTQVGTTENSSDKAKNKEVKMHVWCSKDDVDITTQMIESFKEANKGTDFNIIIEESEDSDARDNILSNVHNGADVFPIADDQITSMVAGGALYEIEDVDAVKKANDESAVEAATIDGKLYGYPLTADNGYFMYYNKNYFSDSDVATLDGMLDIAGANGKYLTMDWSSGWYLYSFFGNTGLDFGVNDDGVTNHCNWNAIITDIKGVDIAQAMLDIAAKPGFKNCVQDDFIAGVQDGSIIAGVSGCWNAAKIKELWGDDYGAVKLPTYTCAGQQIQMSSFKGYKYMAVNAYTKYPEWANKLAQWFTNEDNQKLRFEMKNVGPANKAAAADDAVKKVPAIMAVMDQAQYGKLQRVGNSYWDAATEFGEKMAAGNPDNTDLQEIMDNLVAGITQSVAE”: “failed”; for “MKRLIVVYLLFISLNVLNAWAQKSPADYVNPIIGATTADEMAGSDHGLGKTFPGVCTPFGLVQLSPDTKTGGDNGPGYSWHHSTIEGFSFTHMSGIGWYGDLGNFLVMPTTGELHTFKGTEENPESGYRSRYSHDREVAKVDGYSVMLDDYGIQVELAAASRSGMMRFTYPQSEVSRIQIDLARRIGGTSTEQYVEVVDDYTIKGWMKCTPDGGGWGDGAGQGNYTAYFYCCFDRPLKNFGLWSADIPEGVERKNASNDDPAYHEYIKNAHVFPRKKIAQGKHLGFYTEFSTREGEQALLKCGISFVSIEGARKNLQSDISDWNFDGVRQRARRQWNEALSGVQVEGEEKDKTIFYTSLYHTMIDPRCFSDVDGAYPGADGKVHYADNFIYRTIFSGWDVFRSQFPLQTITNPRLVDDEINSLIQLAELSGKKYFPRWEFLNAYSGCMVGNPAVSVVADAYNKGIRNYDTRKALEYSLNTVRTFGNNEQGYTPDDLSKTLEYAYTDWCVSTMLRDMGREQEAVAFERKAQSYHQVWCDSVKWFRARSADGSWMPWKGRNVHWQGCIESNNYQQGWFVPHDLEGLISLMGKEYFERELVAFFEGADERFMWGDYYNHPNEPDHQVPFMLNYTSRPWLTQYWTRRICRNAYGDTVNGLCGNEDVGQMSAWYILAAMGFHPICPGNNRYELTSPVFRKVILSLDNRYYKGRTFTIIAHHNSPENVYIQSVSLNGKPLNRLWITHEEITKGGVLEFVLGKDPKH”: “failed”.
The same measure for “MKRLLLCLIVIAQTILSLTAQTTEELSRMQTLIDHMAYTEALAWADSCSLQDEQALHLRAKALSELGRHPEAFAVYQRIVRMDPHDAVAYRLGAALQVDMQDYATAAEMLHQGYERTSDIPTGYDLAKLLVHIGQDSTALVITDRILRQDSLPPVIRLRAKALNKRQQPSQAIALLEEQMLRDSTDFLTLIDLATLYGQVEETRRQEQVTARYLQTDSLNVAVLLAHAESMMMLQEADSALHDYERIIGRGHFPTSFKDLFYCGLAYYKTGRWAVAEECFRRADESAFQQNYLTKYYLGMCAYRQKLWEEAEKRLQKLLDLIEPKTDRLTDVHTMLGRCANEQGRTETAISHLRYAIEYDSGNSEACLLLAQCFEKTGNRTGAIHMYRRVLDKERASTAKNDIEGFRRLAEARSRLSLLKADDSEDEETP”: “failed”; for “MKRLMTSLAALSLTAGLAHAQAADVPDNLEKLSNFQSTGATDFTFVEQGGDFADGIKRNLERIKLPQGFRIGLYAVVPDARHMAVGPQGIVTFVGTRKDKVWAVTDRNKDRVADEVKDFAPSLRFTIPNGPCFSKDGFLYIAEQNRVLLFPAAEFFYESGDVAAFNLVKQGELIPVEEESFNHTARVCDIGPDGMIYITLGQPFNVPAPEKRELYDKWGIGGIVRMKTDGTGREVFARGIRNSVGMDIDPETGNVWFTDNQVDGMGDDIPPGEINRATEPGQNFGFPWYGGGSIRTNEYKDEEPPADAVMPVVEMDAHAADLGMMFYTGSMFPEEYRGAIFSAQHGSWNRTTPVGARVMVTTLAEDGTATTKPFAEGWIDENGEYLGRPVDVAQLRDGSILVSDDLVGAIYRIWYQPE”: “failed”.
In the case of “MKRNIFSIGFISVVLFIVLGACVGLAASEALQGSEQEINSAFSNQITPVISGDYIVWQDERDGNWDIYMYDMSAGRTETSLFNGPKDEIEPAISGSRVVLADNRRGNYDIYMYDISTKKEVQVTSDKSEQKEPAISEDIIVWTDRRNQNTDIYMYDLTTKEETRITDDKADQSQPAVWGNIIVWKDTRNGNEDIYMYDISAGKESPVVMDSAAQTNPVIEGDYIVWEDRRAGNLDIYMYEISTGKEKPVCTDPSPQKTPAISDGRIVWADGRIKGTNIFIYDIATGQEKTVSTASEYESNPSIDGNRIVWQDKRKGAMDIFMFTEDASETESTAGEKTEAETGSKAPLGIYPVSAGVIAAYLMINSGKKGKRKT” it was “failed”.
Take “MKRPELIIFDWDGTLFDSVGQIVASLRFAADQFNQPLTDEAAQSIIGLGLPEVMQALFPQVPHLHQEILVHYGEHYVENSKHDAWFEGVAELLHDLKAQGIKLAVATGKSRRGLDRVLNKTQSHELFDITRAASETMSKPHPRMLEEILQVTQVEAQHAIMVGDSSYDLEMAKNIDMPRVGVSYGVHEVDVLQRYEPLTIVDSIAELHHYLTQLLQEKIHA”: the protein production result is “failed”.
Turning to “MKRRAGLGGSMRSVVGFLSQRGLHGDPLLTQDFQRRRLRGCRNLYKKDLLGHFGCVNAIEFSNNGGQWLVSGGDDRRVLLWHMEQAIHSRVKPIQLKGEHHSNIFCLAFNSGNTKVFSGGNDEQVILHDVESSETLDVFAHEDAVYGLSVSPVNDNIFASSSDDGRVLIWDIRESPHGEPFCLANYPSAFHSVMFNPVEPRLLATANSKEGVGLWDIRKPQSSLLRYGGNLSLQSAMSVRFNSNGTQLLALRRRLPPVLYDIHSRLPVFQFDNQGYFNSCTMKSCCFAGDRDQHHNWKWRAQAVSFQPFLSLTRNGDADVDLKLAV”, the protein production entry is “failed”.
In the case of “MKRREVLQAGMALGGLAGLGRALAQGGFTLTLVHTNDTHAHLEPVELTLSGEKTPVGGVARRVALFDRVWARAKNPLFLDAGDVFQGTLYFNQYRGLADRYFMHRLRYRAMALGNHEFDLGPGPLADFLKGARFKVVSANVDASREPRLKGLFAPYAVVVVGGERVGIIGLTTPDTREISNPGPTVAFLDPYESAQKAVYELLAKGVNKIVVLSHLGYGEDLKLARRLVGVQVIVGGHSHTLLGSFPHKELSPAGPYPTVVKNPEGKDVLVVQAWEWGKVVGLLEVTFDAKGELLAYKGEALLMTPEAAPEDFFAKEALLAYAQPVMALMQQVIAEAKVDLVGERAVVRRRESNLGNLITDGMLWKTRNAGTQIALQNGGGIRASIPKGPITVGKVYEVLPFGNTLVVMDLKGKEILAALENGVSQWENTAGRFLQVSGLRYAFDLSRPAGSRVVRVEVKTEKGYVPLDLEATYRVVVNNFIANGGDGFTVLKEAQGYRVDTGFSDAESFMDYLKELKVVEAGLEGRIEVLNEPKGERPAYFAYRVPGLVGV” it was “not failed”.
In the case of “MKRRYSILIILLVAIFYRMITFRFKYLLGYDPYFHLAYIEEVNKVGKWINFLTFAGGPWGYQVKLFHPLGLWMTPLYLYKLLKVFGVSLTTTFKITPVIFGVLTVIFLYLSLLKLYDEKRAFFGGFFLAISYGHVFRSMANYYRGDNYMLFWYSVALLGISLALGIKKGKWKYKRLIFYTLPVLASGFSAIFWQAYYPIFAFLLSNALLLAVGAFILKKDKYLLDSIILILSTAFGVLLANYLGGIFGYGMLGYAKWLGKSVAKKLGLEFGYLKDVYLILHLKYLVPISLSFVLVLILLGFLTKDIRIRSLFLGIASFIGIIILFKRFEALKELSTGFGIFKEAPILETQPTSFKDLWAAFSLSFFLTPLFFIRFKKPRVEDFLTLGLIIPSVYMLKTWTRFLFIGSMAIAIMSGIGIVELYEAIKPRLNGKKALATGIITLVILPGVIAGLSFKEVCSLHPEMNEAWERALKWLKNNSNENDVILAWWDWGHFITYYARRSPIAQGGPSVGVALYLLGKLNENWAINLGVDYVIVSYYDFLKFGAILSTANLSKRYNIRGYGLVVLPLRASTGALIFENRGYRAIVRHDKSWNAVIIYNGQMIYPRKLYVEHKEGVQEIKPPESNSNTYLYVNLNYGYAIFMNGNAFNTTLVRLFITPEKPYKLVYSDGGLIKIFKLEHPNVKVERRESNVILNFENGTSLGLYFFLDNGTMVLSKWYNVKGKNEFIVPKVNASVARYVLKRGKKVVDRGVFRLSYN” it was “failed”.
In the case of “MKRSFSMMTDKRKLHRKKMKRKKRRRRLMFGCLLLFLVLAASGLGYASFLMHKMKTAMNEAYEEIGAKKNTGDHLDPKKDSFTVLFIGIDDSKTRNFKSDTRSDALILAAFNADTQLVKMVSIPRDSYVYIPCEDKYDKITHAHAYGGTKCTIESIERLFDIPIDYYVKMNFYAFIDVVDALGGIEVEVPYNIREKDAEDNRNAIVLKKGYQHLNGEEALALARTRKKDNDIERGKRQQQILQAILKKASHAGSISKYDDVIEAIGSNMKTNFTFDDIKALIYYVSTGNPLQTESLVLQGTDDNEGVYYYRLDEESVQQISDALRSQLHASAGTQLEKERN” it was “failed”.
Turning to “MKRSLRVGSVAGIGIFLHWTFLLLVAAIFAYYYVQSQSLGAALSGMGLILGVFVCVILHELGHALTARRFGVPTRSITLYPIGGLARLERIPSEPMKEFWIAIGGPAVNVVIAFALALVLLVTGGTLAPVALEAPGSHALASLMWINAVLAVFNMLPAFPMDGGRVLRALLALRWDYAQATQTAANVGQGMAVLFGLIGIMTWNPVLLFIALFVYVGAQQESKQAMYRAFTEGTPVREAMVTRFATLTVDDTLDDAVDALLAGTDHDFPVLEAGTVVGLLRRKQLIQALSEHGRDTPVAEVADADCFTTAPSAPLDEVFQQMNARSCSTVPVVDGGQLVGLLTLENVGELIMVSSALETRSHSRVPRDQLSEAPLRERPDGAASSGAPPVP”, the protein production result is recorded as “failed”.
In the case of “MKRTGILLVNLGTPKDSSKTEVRKYLKTFLSDRRVIKIHPIIWKPILNGIILNIRPKKSAKLYQKICTENGFPLLEYTEKQMENLKNICPEVEVTIGMSYSEPSIETALDTLLSKEIEELNVIPMYPQYSGTTVGSVFDSVMNYFIKSDRIVDIKFIRSFYNNPQYIDYFSKKINEALNESPIDAIVFSYHGIPMSYVKDGDNYPKECTKTTKLIMDKLGDIRYYQTYQSKFGPSEWLKPATDDTLKKLPSKGIKNILIVAPGFVVDCLETIEELEHENRNYFLENGGEVYKYVHPFNGDIEFAKLVKDIISL” it was “failed”.
